Data reported in the supplement of paper PMC7877785.
± gives the uncertainty stated by the source.

Experiment: self-splicing fitness, log relative to wild type (ln ratio); higher = more splicing; Tetrahymena group I intron in knt gene, E. coli kanamycin selection, DiMSum; sequences stand for … in CUCUCU…GGAGGGAAAAGUUAUCAGGCAUGCACCUGGUAGCUAGUCUUUAAACCAAUAGAUUGCAUCGGUUUAAAAGGCAAGACCGUCAAAUUGCGGGAAAGGGGUCAACAGCCGUUCAGUACCAAGUCUCAGGGGAAACUUUGAGAUGGCCUUGCAAAGGGUAUGGUAAUAAGCUGACGGACAUGGUCCUAACCACGCAGCCAAGUCCUAAGUCAACAGAUCUUCUGUUGAUAUGGAUGCAGUUCACAGACUAAAUGUCGGUCGGGGAAGAUGUAUUCUUCUCAUAAGAUAUAGUCGGACCUCUCCUUAAUGGGAGCUAGCGGAUGAAGUGAUGCAACACUGGAGCCGCUGGGAACUAAUUUGUAUGCGAAAGUAUAUUGAUUAGUUUUGGAGUACUCGUGGUCG
Summary of the method: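 The eight P1ex-region nucleotides of an intron in the knt kanamycin-resistance gene on pET-22b(+) were all randomised and the library put into E. coli BL21(DE3). Six replicate transformations were grown overnight at 37°C or 30°C on LB agar with or without 25 μg/mL kanamycin, together with 100 μg/mL carbenicillin, 50 μM IPTG and 0.2% rhamnose. Colonies were pooled and amplicon-sequenced on an Illumina HiSeq 2500. Fitness from DiMSum is the error-weighted combination of wild-type-normalised replicate fold changes, kanamycin over none.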

Sequence | self-splicing fitness (ln) (30 °C) | self-splicing fitness (ln) (37 °C)
GACGAGCAAUAUUACGUACU | -1.64 ± 0.18 | -0.775 ± 0.14
GACGAGCAAUAUUACGUAUG | -2.4 ± 0.17 | -1.58 ± 0.16
GACGAGCAAUAUUACGUCAU | -2.2 ± 0.2 | -3.16 ± 0.43
GACGAGCAAUAUUACGUCCA | -2.11 ± 0.32 | -2.68 ± 0.31
GACGAGCAAUAUUACGUCCC | – | -0.0984 ± 0.5
GACGAGCAAUAUUACGUCUA | -2.4 ± 0.23 | -1.43 ± 0.13
GACGAGCAAUAUUACGUCUG | -3.64 ± 0.22 | -2.53 ± 0.2
GACUAGCAAUAUUACGAAAG | -2.97 ± 0.16 | -1.8 ± 0.2
GACUAGCAAUAUUACGAACG | -1.34 ± 0.11 | -0.144 ± 0.15
GACUAGCAAUAUUACGAACU | 0.186 ± 0.15 | 1.04 ± 0.22
GACUAGCAAUAUUACGAAGC | -2.18 ± 0.18 | -1.55 ± 0.18
GACUAGCAAUAUUACGAAUC | -2.28 ± 0.32 | -1.83 ± 0.28
GACUAGCAAUAUUACGACAU | -0.511 ± 0.012 | -0.122 ± 0.032
GACUAGCAAUAUUACGAGCU | -1.61 ± 0.13 | -0.918 ± 0.093
GACUAGCAAUAUUACGAGGC | – | -2.23 ± 0.3
GACUAGCAAUAUUACGAUAC | -1.31 ± 0.07 | -0.489 ± 0.092
GACUAGCAAUAUUACGAUCG | -1.24 ± 0.13 | -0.31 ± 0.21
GACUAGCAAUAUUACGAUCU | -0.896 ± 0.087 | -1.38 ± 0.096
GACUAGCAAUAUUACGAUGA | -0.535 ± 0.1 | -1.08 ± 0.08
GACUAGCAAUAUUACGCCAU | -2.02 ± 0.12 | -1.32 ± 0.14
GACUAGCAAUAUUACGCCGC | -3.31 ± 0.21 | -1.65 ± 0.2
GACUAGCAAUAUUACGCGAU | -2.8 ± 0.21 | -2.42 ± 0.3
GACUAGCAAUAUUACGCGCA | -0.593 ± 0.16 | -0.286 ± 0.18
GACUAGCAAUAUUACGGAUA | -1.4 ± 0.09 | -0.349 ± 0.09
GACUAGCAAUAUUACGGCAU | -0.26 ± 0.059 | 0.291 ± 0.081

Sequence | self-splicing fitness (ln) (30 °C) | self-splicing fitness (ln) (37 °C)
GACUAGCAAUAUUACGGCGA | -0.738 ± 0.079 | -0.303 ± 0.081
GACUAGCAAUAUUACGGGCG | -0.65 ± 0.061 | -0.282 ± 0.071
GACUAGCAAUAUUACGUAAA | -0.826 ± 0.097 | 0.0101 ± 0.12
GACUAGCAAUAUUACGUAUC | -2.74 ± 0.11 | -1.98 ± 0.12
GACUAGCAAUAUUACGUCGC | -3.63 ± 0.18 | -1.94 ± 0.16
GACUAGCAAUAUUACGUGAC | -1.34 ± 0.085 | -1.39 ± 0.12
GACUAGCAAUAUUACGUGCU | -3.61 ± 0.16 | -1.9 ± 0.12
GAGAAGCAAUAUUACGAAAG | -4.36 ± 0.32 | -1.5 ± 0.2
GAGAAGCAAUAUUACGACAU | -0.36 ± 0.013 | -0.137 ± 0.033
GAGAAGCAAUAUUACGACGU | -0.944 ± 0.22 | 0.108 ± 0.19
GAGAAGCAAUAUUACGAGCU | -0.838 ± 0.12 | -0.347 ± 0.11
GAGAAGCAAUAUUACGAUCA | -1.06 ± 0.15 | -0.469 ± 0.16
GAGAAGCAAUAUUACGAUCG | -0.334 ± 0.094 | -0.068 ± 0.14
GAGAAGCAAUAUUACGAUGC | -1.06 ± 0.15 | -0.435 ± 0.21
GAGAAGCAAUAUUACGCGUA | -1.03 ± 0.12 | -1.1 ± 0.13
GAGAAGCAAUAUUACGCUAU | -2.79 ± 0.19 | -1.31 ± 0.16
GAGAAGCAAUAUUACGCUUC | -2.79 ± 0.26 | -2.89 ± 0.38
GAGAAGCAAUAUUACGGAAC | -2.78 ± 0.19 | -0.25 ± 0.16
GAGAAGCAAUAUUACGGAUA | -2.16 ± 0.2 | -0.942 ± 0.21
GAGAAGCAAUAUUACGGAUG | -2.5 ± 0.14 | -0.821 ± 0.13
GAGAAGCAAUAUUACGGCGC | 0.341 ± 0.21 | -0.241 ± 0.22
GAGAAGCAAUAUUACGGGAA | -2.47 ± 0.25 | -1.24 ± 0.22
GAGAAGCAAUAUUACGGGAG | -2.12 ± 0.13 | -1.63 ± 0.18
GAGAAGCAAUAUUACGGGGU | -3.06 ± 0.2 | -3.13 ± 0.28
GAGAAGCAAUAUUACGGUCC | -2.14 ± 0.24 | -1.06 ± 0.21

Sequence | self-splicing fitness (ln) (30 °C) | self-splicing fitness (ln) (37 °C)
GAGAAGCAAUAUUACGGUUG | -2.18 ± 0.1 | -1.99 ± 0.14
GAGAAGCAAUAUUACGUAAG | -2.72 ± 0.15 | -1.1 ± 0.15
GAGAAGCAAUAUUACGUAUC | -3.78 ± 0.37 | -3.21 ± 0.35
GAGAAGCAAUAUUACGUCAA | -1.82 ± 0.11 | -0.98 ± 0.11
GAGAAGCAAUAUUACGUCAC | -3.6 ± 0.29 | -0.67 ± 0.24
GAGAAGCAAUAUUACGUCAG | -3.34 ± 0.23 | -1.35 ± 0.18
GAGAAGCAAUAUUACGUCUA | -0.555 ± 0.076 | 0.35 ± 0.092
GAGAAGCAAUAUUACGUGCG | -1.71 ± 0.093 | -1.02 ± 0.1
GAGAAGCAAUAUUACGUUGG | -2.35 ± 0.15 | -2.66 ± 0.21
GAGCAGCAAUAUUACGAACG | -2.53 ± 0.18 | -0.673 ± 0.16
GAGCAGCAAUAUUACGAAGU | -2.87 ± 0.21 | -0.867 ± 0.16
GAGCAGCAAUAUUACGAGCC | -0.545 ± 0.19 | -0.285 ± 0.21
GAGCAGCAAUAUUACGAGGU | -4.1 ± 0.33 | -1.65 ± 0.15
GAGCAGCAAUAUUACGCAAC | -2.85 ± 0.28 | -2.22 ± 0.45
GAGCAGCAAUAUUACGCAUU | -3.04 ± 0.2 | -2.23 ± 0.24
GAGCAGCAAUAUUACGCCAU | -2.67 ± 0.46 | -3.33 ± 0.43
GAGCAGCAAUAUUACGCCCA | -0.299 ± 0.18 | 0.255 ± 0.26
GAGCAGCAAUAUUACGCGGU | -3.17 ± 0.27 | -0.69 ± 0.22
GAGCAGCAAUAUUACGCGUA | -0.655 ± 0.18 | -0.959 ± 0.14
GAGCAGCAAUAUUACGCUCC | -2.25 ± 0.35 | -0.34 ± 0.38
GAGCAGCAAUAUUACGGAAU | -3.37 ± 0.22 | -2.08 ± 0.2
GAGCAGCAAUAUUACGGAGA | -4.02 ± 0.25 | -2.16 ± 0.16
GAGCAGCAAUAUUACGGCAC | -0.575 ± 0.1 | -0.126 ± 0.17
GAGCAGCAAUAUUACGGCGU | -0.163 ± 0.14 | 0.683 ± 0.18
GAGCAGCAAUAUUACGGUCA | -0.942 ± 0.11 | -0.118 ± 0.11

Sequence | self-splicing fitness (ln) (30 °C) | self-splicing fitness (ln) (37 °C)
GAGCAGCAAUAUUACGGUGC | -2.98 ± 0.18 | -2.61 ± 0.18
GAGCAGCAAUAUUACGUAUC | -2.06 ± 0.087 | -1.44 ± 0.091
GAGCAGCAAUAUUACGUGCU | -3.11 ± 0.2 | -2.2 ± 0.23
GAGCAGCAAUAUUACGUGGG | -3.13 ± 0.24 | -3.03 ± 0.27
GAGCAGCAAUAUUACGUGUG | -3.28 ± 0.12 | -0.789 ± 0.11
GAGGAGCAAUAUUACGACAA | -2.14 ± 0.24 | -1.1 ± 0.27
GAGGAGCAAUAUUACGAGCU | – | -1.77 ± 0.47
GAGGAGCAAUAUUACGAUCA | -2.5 ± 0.22 | -1.59 ± 0.19
GAGGAGCAAUAUUACGCACA | -1.61 ± 0.32 | -0.287 ± 0.23
GAGGAGCAAUAUUACGCGUG | -1.55 ± 0.19 | -0.66 ± 0.23
GAGGAGCAAUAUUACGCUAA | -1.86 ± 0.32 | –
GAGGAGCAAUAUUACGCUAU | -2.8 ± 0.27 | -2.05 ± 0.45
GAGGAGCAAUAUUACGCUGC | -4.13 ± 0.38 | –
GAGGAGCAAUAUUACGGAAC | -3.68 ± 0.44 | -0.46 ± 0.28
GAGGAGCAAUAUUACGGCAA | -2.41 ± 0.21 | -0.766 ± 0.26
GAGGAGCAAUAUUACGGGCA | -1.33 ± 0.32 | -3.44 ± 0.47
GAGGAGCAAUAUUACGGGUA | – | -2.26 ± 0.36
GAGGAGCAAUAUUACGGGUU | -1.74 ± 0.14 | -2.23 ± 0.22
GAGGAGCAAUAUUACGGUUA | -2.45 ± 0.28 | -2.2 ± 0.3
GAGGAGCAAUAUUACGUAGC | -0.914 ± 0.2 | -1.02 ± 0.37
GAGGAGCAAUAUUACGUCAG | -3.5 ± 0.37 | –
GAGGAGCAAUAUUACGUGGG | -3.08 ± 0.36 | -1.91 ± 0.4
